Where a chain is given by its changes, count along the chain named. Blank lines part the entries; values can stand above or below the molecule they belong to.
Legend:
TE14 cells = assay: ADC assay combining anti-GPC-1 antibody and MMAF binding secondary antibody, TE14 cells; format: cell-based; conditions: primary antibody plus MMAF secondary antibody
Procedure: FIG. 1 depicts a schematic diagram of an ADC used in an assay. This Example used a secondary antibody (MORADEC) to the anti-GPC1 antibody made in Example 1, to which an anticancer agent (MMAF) was bound via a linker.
2000 TE14 cells were added to a 96-well plate at 80 μl. The cells were cultured overnight at 37° C. in a 5% CO2 incubator. The next day, 10 μl of an anticancer agent bound secondary antibody and 10 μl of a primary antibody concentrated 10-fold relative to the final concentration was added to each well, so that the total amount was 100 μl. The cells were cultured for 6 days at 37° C. in a 5% CO2 incubator. The cell viability was measured by using a CellTiter-Glo Luminescent Cell Viability Assay reagent to detect the amount of ATP. RPMI1640+10% FBS+1% PS was used as the medium. The final concentrations of the primary antibody were 0, 0.004, 0.0156, 0.0625, 0.25, and 1.0 nM. 2 μg/ml of Fab-aMFc-CL-MMAF (model number: AM202AF-50, Moradec) was used as the secondary antibody.

DU145 cells = assay: ADC assay combining anti-GPC-1 antibody and MMAF binding secondary antibody in DU145 cells; format: cell-based; conditions: 3 days; for EC50 values against DU145 cells: primary antibody plus MMAF secondary antibody; for growth suppressing effect against DU145 cells: primary antibody plus MMAF secondary antibody 2 μg/ml
Procedure: 2000 DU145 cells were added to a 96-well plate at 80 μl. The cells were cultured overnight at 37° C. in a 5% CO2 incubator. The next day, 10 μl each of anticancer agent binding secondary antibody (2 μg/ml) and primary antibody concentrated 10-fold relative to the final concentration was added to each well, so that the total amount was 100 μl. The cells were cultured for 3 days at 37° C. in a 5% CO2 incubator. The cell viability was measured by using a CellTiter-Glo Luminescent Cell Viability Assay reagent to detect the amount of ATP. RPMI1640+10% FBS+1% PS was used as the medium. The final concentrations of the primary antibodies were […]. 2 μg/ml of Fab-aMFc-CL-MMAF (model number AM202AF-50, Moradec) was used as the secondary antibody. The EC50 value was analyzed with GraphPad Prism 6. The same experiment was conducted using 4000 MDA-MB231 cells as the control.

B3: clone 02a002: anti-human Glypican-1 antibody, heavy chain SEQ ID NO: 166, light chain SEQ ID NO: 168 (antibody)
heavy: MKHLWFFLLLVAAPRWVLSEVKLVESGGGLVKPGGSRKLSCAASGFTFSDYGMHWVRQAPEKGLEWVAYISSGSSTIYYADTVKGRFTISRDNAKNTLFLQMTSLRSEDTAMYYCARHSYYSYDVGGDYVMDYWGQGTSVTVSSAKTTAPSVYPLAPVCGDTTGSSVTLGCLVKGYFPEPVTLTWNSGSLSSGVHTFPAVLQSDLYTLSSSVTVTSSTWPSQSITCNVAHPASSTKVDKKIEPRGPTIKPCPPCKCPAPNLLGGPSVFIFPPKIKDVLMISLSPIVTCVVVDVSEDDPDVQISWFVNNVEVHTAQTQTHREDYNSTLRVVSALPIQHQDWMSGKEFKCKVNNKDLPAPIERTISKPKGSVRAPQVYVLPPPEEEMTKKQVTLTCMVTDFMPEDIYVEWTNNGKTELNYKNTEPVLDSDGSYFMYSKLRVEKKNWVERNSYSCSVVHEGLHNHHTTKSFSRTPGK
light: MRLLAQLLGLLMLWVPGSSGDIVMSQSPKFMSTSVGDRVSITCKASQDVGTAVAWYQQKPGQSPKLLIYWASTRHTGVPDRFTGSGSGTDFTLTISNVQSEDLADYFCQQYSSYPLTFGAGTKLEIKRADAAPTVSIFPPSSEQLTSGGASVVCFLNNFYPKDINVKWKIDGSERQNGVLNSWTDQDSKDSTYSMSSTLTLTKDEYERHNSYTCEATHKTSTSPIVKSFNRNEC
EC50 values against TE14 cells (TE14 cells): excellent EC50 values | EC50 values against DU145 cells (DU145 cells): excellent EC50 values

B5: clone 01a009: anti-human Glypican-1 antibody, heavy chain SEQ ID NO: 150, light chain SEQ ID NO: 152 (antibody)
heavy: MKHLWFFLLLVAAPRWVLSEVQLQQSGPELVKPGASVEISCKASGYSFTGYFMNWVKQSQGKSLEWIGRINPDNGDIFYNQKFKGKATLTVDKSSSTAHMELRSLTSEDSAVYYCARSWNWYFDVWGAGTTVTVSSAKTTAPSVYPLAPVCGDTTGSSVTLGCLVKGYFPEPVTLTWNSGSLSSGVHTFPAVLQSDLYTLSSSVTVTSSTWPSQSITCNVAHPASSTKVDKKIEPRGPTIKPCPPCKCPAPNLLGGPSVFIFPPKIKDVLMISLSPIVTCVVVDVSEDDPDVQISWFVNNVEVHTAQTQTHREDYNSTLRVVSALPIQHQDWMSGKEFKCKVNNKDLPAPIERTISKPKGSVRAPQVYVLPPPEEEMTKKQVTLTCMVTDFMPEDIYVEWTNNGKTELNYKNTEPVLDSDGSYFMYSKLRVEKKNWVERNSYSCSVVHEGLHNHHTTKSFSRTPGK
light: MRLLAQLLGLLMLWVPGSSGDIQMTQSPASLSASVGETVTITCRASENIYSYLAWYQQKQGKSPQLLVYNAKTLAEGVPSRFSGSGSGTQFSLKINSLQPEDFGSYYCQHHYGTPYTFGSGTKLEIKRADAAPTVSIFPPSSEQLTSGGASVVCFLNNFYPKDINVKWKIDGSERQNGVLNSWTDQDSKDSTYSMSSTLTLTKDEYERHNSYTCEATHKTSTSPIVKSFNRNEC
EC50 values against TE14 cells (TE14 cells): excellent EC50 values | EC50 values against DU145 cells (DU145 cells): excellent EC50 values

B6: clone 01a030: anti-human Glypican-1 antibody, heavy chain SEQ ID NO: 154, light chain SEQ ID NO: 156 (antibody)
heavy: MKHLWFFLLLVAAPRWVLSQVQLQQSGAELVRPGTSVKMSCKAAGYTFTNYWIGWVKQRPGHGLEWIGDIYPGGGYTHYNEKFKGKATLTADTSSSTAYMQLSSLTSEDSAIYYCARERVYYDGSRYFDVWGAGTTVTVSSAKTTAPSVYPLAPVCGDTTGSSVTLGCLVKGYFPEPVTLTWNSGSLSSGVHTFPAVLQSDLYTLSSSVTVTSSTWPSQSITCNVAHPASSTKVDKKIEPRGPTIKPCPPCKCPAPNLLGGPSVFIFPPKIKDVLMISLSPIVTCVVVDVSEDDPDVQISWFVNNVEVHTAQTQTHREDYNSTLRVVSALPIQHQDWMSGKEFKCKVNNKDLPAPIERTISKPKGSVRAPQVYVLPPPEEEMTKKQVTLTCMVTDFMPEDIYVEWTNNGKTELNYKNTEPVLDSDGSYFMYSKLRVEKKNWVERNSYSCSVVHEGLHNHHTTKSFSRTPGK
light: MRLLAQLLGLLMLWVPGSSGDIKMTQSPKFLPVSAGDRVTMTCKASQSVGNNVAWYQQKPGQSPKLLIYYASNRYTGVPDRFTGSGSGTDFTFTISSVQVEDLAVYFCQQHYSSPWTFGGGTKLEIKRADAAPTVSIFPPSSEQLTSGGASVVCFLNNFYPKDINVKWKIDGSERQNGVLNSWTDQDSKDSTYSMSSTLTLTKDEYERHNSYTCEATHKTSTSPIVKSFNRNEC
EC50 values against TE14 cells (TE14 cells): excellent EC50 values | EC50 values against DU145 cells (DU145 cells): excellent EC50 values

B7: clone 01a002: anti-human Glypican-1 antibody, heavy chain SEQ ID NO: 126, light chain SEQ ID NO: 128 (antibody)
heavy: MKHLWFFLLLVAAPRWVLSEVQLQQSGPELVKPGASVKISCKSSGYSFTRYYMHWVKHSPEKSLEWIGEINPSTGDTTYNQKFKAKATLTVDKSSSTAYMQLKSLTSEDSAVYYCAREKRDDGVLAYWGQGTLVTVSSAKTTAPSVYPLAPVCGDTTGSSVTLGCLVKGYFPEPVTLTWNSGSLSSGVHTFPAVLQSDLYTLSSSVTVTSSTWPSQSITCNVAHPASSTKVDKKIEPRGPTIKPCPPCKCPAPNLLGGPSVFIFPPKIKDVLMISLSPIVTCVVVDVSEDDPDVQISWFVNNVEVHTAQTQTHREDYNSTLRVVSALPIQHQDWMSGKEFKCKVNNKDLPAPIERTISKPKGSVRAPQVYVLPPPEEEMTKKQVTLTCMVTDFMPEDIYVEWTNNGKTELNYKNTEPVLDSDGSYFMYSKLRVEKKNWVERNSYSCSVVHEGLHNHHTTKSFSRTPGK
light: B6 light with K23Q, W116L, G120A, I126L
EC50 values against TE14 cells (TE14 cells): excellent EC50 values | growth suppressing effect against DU145 cells (DU145 cells): high growth suppressing effect | EC50 values against DU145 cells (DU145 cells): excellent EC50 values

Further lines, with some results ahead:

EC50 values against TE14 cells (TE14 cells): excellent EC50 values | EC50 values against DU145 cells (DU145 cells): excellent EC50 values
B1: clone 4: anti-Glypican-1 antibody, heavy chain SEQ ID NO: 198, light chain SEQ ID NO: 200; sequence from WO 2015/098112 (antibody)
heavy: AVTLDESGGGLQTPGRALSLVCKASGFTFSRYAMYWVRQAPGKGLEFVAGIGNTGRYTGYGSAVKGRATISRDSGQSTVRLQLNNLRAEDTGNYYCAKSVSPYCCDAADIDAWGHGTEVIVSS
light: ASTQPSSVSANPGETVKITCSGGSSGYAYGWYQQKSPGSAPVTLLYSNNNRPSDIPSRFSGSKSGSTATLTITGVQAEDEAVYFCGSVDSSSYAGIFGAGTTLTVL

EC50 values against TE14 cells (TE14 cells): excellent EC50 values | EC50 values against DU145 cells (DU145 cells): excellent EC50 values
B2: clone 02a010: anti-human Glypican-1 antibody, heavy chain SEQ ID NO: 174, light chain SEQ ID NO: 176 (antibody)
heavy: B3 heavy with S71N, E108G
light: B3 light with M24L, S25T
growth suppressing effect against DU145 cells (DU145 cells): high growth suppressing effect

EC50 values against TE14 cells (TE14 cells): excellent EC50 values | EC50 values against DU145 cells (DU145 cells): excellent EC50 values
B4: clone 18: anti-Glypican-1 antibody, heavy chain SEQ ID NO: 202, light chain SEQ ID NO: 204; sequence from WO 2015/098112 (antibody)
heavy: AVTLDESGGGLQTPGGTLSLVCKASGFDFSSVNMFWVRQAPGKGLEFVAGIDNDATFTLYGSAVKGRASISRDNGQSTVRLQLNNLRAEDTGTYYCAKTLCSTTWGCGAYSAGDIDAWGHGTEVIVSS
light: ASTQPSSVSANPGETVKITCSGGGSSGYGYYGWYQQKSPGSAPVTVIYNNNKRPTDIPSRFSGALSGSTATLTITGVQVEDEAVYYCGSRDNTYVGIFGAGTTLTVL
